Here are results for two molecules from US20020098527A1 (Kyowa Kirin, published 2002).

Assay [1] addresses T1, hCCR4 partial peptide (Compound 1) (human, conjugated with thyroglobulin (THY) using SMCC as the crosslinking agent).
T1 construct: Synthetic peptide, coated on ELISA plates as a THY conjugate
T1 peptide: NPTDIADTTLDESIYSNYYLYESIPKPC
The assay is described as follows: ELISA on plate-coated hCCR4 partial peptide conjugate. For orientation: In an ELISA, binding on a coated surface is turned into a signal by an enzyme label.

The target in assay [2] is T2, human CC chemokine receptor 4 (human CCR4) (human, UniProt P51679 1-360).
T2 construct: Expressed on mouse EL-4 cells transfected with hCCR4 DNA (CCR4/EL-4); also called hCCR4; K5-5
T2 sequence: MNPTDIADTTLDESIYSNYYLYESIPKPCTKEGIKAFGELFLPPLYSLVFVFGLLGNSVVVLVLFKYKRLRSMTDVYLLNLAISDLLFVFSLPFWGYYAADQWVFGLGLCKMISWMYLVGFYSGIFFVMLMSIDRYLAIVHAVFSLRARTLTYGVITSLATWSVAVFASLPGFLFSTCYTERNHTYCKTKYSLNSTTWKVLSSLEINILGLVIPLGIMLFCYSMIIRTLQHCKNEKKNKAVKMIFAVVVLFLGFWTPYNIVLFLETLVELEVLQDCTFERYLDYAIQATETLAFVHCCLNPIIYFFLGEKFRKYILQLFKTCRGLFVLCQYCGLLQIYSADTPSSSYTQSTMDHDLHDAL
The assay is described as follows: flow cytometry (immunofluorescent method) on hCCR4-high-expressing EL-4 cells. The protocol: They were selected by an immunofluorescent method using KM2160 prepared in Example 1(5). Into a 96 well U shape plate, 2×10⁵ cells of each of selected several tens of the gene-introduced clones was dispensed. KM2160 labeled with biotin by a known method (Enzyme Antibody Method, published by Gakusai Kikaku) was diluted to 5 μg/ml with a buffer for FACS (1% BSA-PBS, 0.02% EDTA, 0.05% NaN₃, pH 7.4), human IgG (manufactured by Welfide) was diluted to 3.75 mg/ml to prevent nonspecific staining, each of the thus diluted antibody solution was dispensed at 200 μl/well, and the mixture was allowed to react in ice for 30 minutes. As a negative control, biotinylated anti-IL-5R antibody (WO 97/10354) was used at the same concentration. After washing twice with 200 μl/well of the buffer, streptoavidin-PE (manufactured by Becton Dickinson Japan) was dispensed at 20 μl/well. Thirty minutes after the reaction in ice in the dark, the cells were washed three times with 200 μl/well and finally suspended to 500 μl, and the fluorescence intensity was measured by a flow cytometer to select one cell line having the highest fluorescence intensity.
Reactivity of the purified anti-CCR4 chimeric antibody KM2760 with the hCCR4-high-expressing cell (hereinafter referred to as “CCR4/EL-4”) produced in 3(4) of Example 2 was measured in the same manner as in 3(4) of Example 2.
A general note: In flow cytometry, cells or beads pass a laser one at a time.

The target of assay [3] is T1, hCCR4 partial peptide (Compound 1). The assay is described as follows: ELISA, THY-peptide conjugate coated at 10 µg/ml, antibody concentration varied. The method, then:
(§1) The conjugate prepared in the above manner was dispensed at 10 μg/ml and 50 μl/well into a 96 well plate for EIA (manufactured by Greiner) and adhered thereto by incubating it at 4° C. overnight. After washing with PBS, 1% BSA-containing PBS (hereinafter referred to as “1% BSA-PBS”) was added at 100 μl/well, and the mixture was allowed to react at room temperature for 1 hour to block the remaining active groups. After removing 1% BSA-PBS, diluted solutions of a transformant culture supernatant, a purified mouse antibody or a purified human chimeric antibody was dispensed at 50 μl/well, and the mixture was allowed to react at room temperature for 1 hour. […] After the reaction, each well was washed with Tween-PBS, ABTS solution (a solution prepared by dissolving 0.55 g of 2,2′-azino-bis(3-ethylbenzothiazoline-6-sulfonic acid)ammonium in 1 liter of 0.1 M citrate buffer (pH 4.2), and adding 1 μl/ml of hydrogen peroxide just before use) was dispensed at 50 μl/well for color developing, and the absorbance at 415 nm (hereinafter referred to as “OD₄₁₅”) was measured.
(§2) Reactivity of the purified anti-CCR4 chimeric antibody KM2760 to human CCR4 and mouse CCR4 was measured by ELISA shown in 2(3) of Example 2. […]

In assay [4] the target is T3, mCCR4 partial peptide (Compound 2) (mouse, conjugated with thyroglobulin (THY) using SMCC as the crosslinking agent).
T3 construct: Synthetic peptide, coated on ELISA plates as a THY conjugate
T3 peptide: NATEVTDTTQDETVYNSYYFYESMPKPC
The assay is described as above. The method, then: as §1, §2

B1: mouse anti-CCR4 monoclonal antibody KM2160 (antibody, mouse IgG1, V domains shown)
VH: EVQLVESGGDLMKPGGSLKISCAASGFIFSNYGMSWVRQTPDMRLEWVATISSASTYSYYPDSVKGRFTISRDNAENSLYLQMNSLRSEDTGIYYCGRHSDGNFAFGYWGRGTLVTVSA
VL: DVLMTQTPLSLPVSLGDQASISCRSSRNIVHINGDTYLEWYLQRPGQSPKLLIYKVSNRFSGVPDRFSGSGSGTDFTLKISRVEAEDLGVYYCFQGSLLPWTFGGGTRLEIRR
notes: Mouse IgG1 class with a kappa L chain, produced by hybridoma KM2160; also called anti-CCR4 mouse antibody KM2160
Consider B1, for which the binding result in assay [1] is given as “binds”.

B2: anti-CCR4 chimeric antibody KM2760 (antibody, V domains shown)
VH: B1 VH
VL: B1 VL
notes: Human chimeric antibody: CH is human IgG1 subclass and CL is human kappa class (vector pKANTEX93); It was expressed in rat YB2/0 cells; It was used biotinylated in the flow cytometry assays
Take B2: the binding result in assay [2], in assay [3] and in assay [4] was “binds” throughout.
